B1: Nb 2.11, monomeric nanobody (VHH)
VHH: QVQLVESGGGSVQAGGSLRLSCAASGDASNRKCVSWFRRAPGKEREGVALIFPVGSSTAYADSVKGRFTISQDSAKDTVYLQMNNLKPEDSGTYYCAAVSWGGRCNLETQTVTFWGQGTQVTVSS
B2: hcAb 1.29 (Nb 1.29 fused to the human IgG1 hinge and Fc) (Fc fusion)
chain: QVQLVESGGGSVQAGGSLRLSCAASGYTINTDAVAWFRQAPGKGDERVAVIYTGSGNTNYADSVKGRFTISQDNAKNTVYLQMNSLKPEDTALYYCASGYYGASGYDFNNWGQGTQVTVSS
B3: hcAb 2.11 (Nb 2.11 fused to the human IgG1 hinge and Fc) (Fc fusion)
chain: B1 VHH
B4: hcAb 1.26 (Nb 1.26 fused to the human IgG1 hinge and Fc) (Fc fusion)
chain: QVQLVESGGGLVQAGGSLRLSCAATGYTWSSVCMGWFRQAPGKEREGVAGIPSGRNRPYYADSVKGRFTISQDNAKNAVFLLMNSLKPEDTAIYYCAPCSAPHDPEYNYWGQGTQVTVSS
B5: hcAb 1.10 (Nb 1.10 fused to the human IgG1 hinge and Fc) (Fc fusion)
chain: QVQLVESGGGSVQAGGSLRLSCAASGYTYSTCRKGWYRQAPGKERELVASITADGATYYLDSVKGRLTISQDNAKNTVYLQMNSLKPEDTAVYYCAASVKDFTCTFNSWGQGTQVTVSS
B6: hcAb 2.15 (Nb 2.15 fused to the human IgG1 hinge and Fc) (Fc fusion)
chain: QVQLVESGGGSVQAGGSLKLSCAASGYASWARKCIGWFRQAPGQEREGVAAIFDFDGSTYYSDSVKGRFTISGDNAKNTVSLQMNSLLPKDTAVYYCTVAFGTCDNWYRGRGDYWGQGTQVTVSS
B7: Nb 1.16, monomeric nanobody (VHH)
VHH: QVQLVESGGGSVQAGGSLRLSCAASGNTSKRKCVGWFRRAPGKEREGVTLIYTVGGSTVYADSVKGRFTISQDNAKDTVYLQMNSLKPEDSAMYYCAAESWGRQCNLETHRFTFWGQGTQVTVSS
B8: hcAb 1.16 (Nb 1.16 fused to the human IgG1 hinge and Fc) (Fc fusion)
chain: B7 VHH
B9: Nb 2.15, monomeric nanobody (VHH)
VHH: B6 chain
B10: hcAb 2.1 (Nb 2.1 fused to the human IgG1 hinge and Fc) (Fc fusion)
chain: QVQLVESGGGSVQAGGSLRLSCAAFGATISSAHMGWFRQAPGKEREGVAFRYTDGSSTYYTTSVRGRFTISQDNAKNTVYLQMNSLKPEDTAMYYCASNPSWGRLVGGQYNNWGQGTQITVSS
B11: Nb 2.1, monomeric nanobody (VHH)
VHH: B10 chain
B12: hcAb 2.20 (Nb 2.20 fused to the human IgG1 hinge and Fc) (Fc fusion)
chain: QVQLVESGGGSVQAGGSLRLSCAASGYTYNNYYMGWFRQAPGKEREGVAAINSDGLDTYVADSVKGRFTISRDNAKDTVHLQMNSLKPEDTAIYSCATGRTVYYSGYDFRLSVDDYWGQGTQVTVSS

Each binder was assayed against monomeric SARS-CoV-2 RBD (S residues 332-534) with Flag peptide and 8xHis-tag (SARS-CoV-2 (WA1 strain), UniProt P0DTC2 332-534) (assay: SPR).

| Binder | Kd [nM] |
| --- | --- |
| B1 | 2.17 |
| B2 | 0.63 |
| B3 | 0.16 |
| B4 | 0.08 |
| B5 | 0.77 |
| B6 | 0.08 |
| B7 | 3.59 |
| B8 | 0.25 |
| B9 | 0.39 |
| B10 | 0.36 |
| B11 | 1.74 |
| B12 | 0.21 |
